Source: doi:10.1101/2020.07.17.208231, “UMP inhibition and sequential firing in aspartate transcarbamoylase open ways to regulate plant growth” (bioRxiv, 2020)

Key:
[1] = molecular target: the molecule itself; experiment: SEC-MALS; 400 ul purified protein at 1.4 mg/ml on Superdex 200 10/300 in GF buffer (20 mM Tris pH 7.0, 0.1 M NaCl, 2% glycerol, 0.2 mM TCEP); also the UMP-freed sample and the sample pre-incubated with PALA (Supplementary Fig. 4)
[2] = molecular target: the molecule itself; experiment: crystal structure; sitting-drop vapor diffusion at room temperature, PEG 3350 conditions; with UMP, apo, with PALA, with PALA and CP, with CP; molecular replacement with PDB 5G1O

B1: Arabidopsis aspartate transcarbamoylase, construct spanning aa 82-390 (atATC) (enzyme, Arabidopsis thaliana, UniProt P49077 82-390, looked up)
chain: FELSDVIEGKQFDREMLSAIFDVAREMEKIEKSSSQSEILKGYLMATLFYEPSTRTRLSFESAMKRLGGEVLTTENAREFSSAAKGETLEDTIRTVEGYSDIIVMRHFESGAARKAAATANIPVINAGDGPGEHPTQALLDVYTIQSEIGKLDGISVALVGDLANGRTVRSLAYLLAKFKDVKIYFVSPEIVKMKDDIKDYLTSSGVEWEESSDLMEVASKCDVVYQTRIQRERFGERLDLYEAARGKYIVDKDLLGVMQKKAIIMHPLPRLDEITADVDADPRAAYFRQAKNGLFIRMALLKLLLVGW
notes: aspartate transcarbamoylase (ATC; pyrB; At3g20330), Arabidopsis thaliana, aa 82-390 of the 390 aa precursor, i.e. without the N-terminal chloroplast transit peptide; Homotrimer; As purified it carries UMP captured during expression; a UMP-freed form was also made; also called WT; recombinant ATC; source: E. coli BLR(DE3)-pLysS, purified (Ni-sepharose, size-exclusion chromatography); not shown: …
[1]
  stoichiometry N: 3

B2: atATC mutant F161A (enzyme, Arabidopsis thaliana, UniProt P49077 82-390, looked up)
chain: FELSDVIEGKQFDREMLSAIFDVAREMEKIEKSSSQSEILKGYLMATLFYEPSTRTRLSFESAMKRLGGEVLTTENAREASSAAKGETLEDTIRTVEGYSDIIVMRHFESGAARKAAATANIPVINAGDGPGEHPTQALLDVYTIQSEIGKLDGISVALVGDLANGRTVRSLAYLLAKFKDVKIYFVSPEIVKMKDDIKDYLTSSGVEWEESSDLMEVASKCDVVYQTRIQRERFGERLDLYEAARGKYIVDKDLLGVMQKKAIIMHPLPRLDEITADVDADPRAAYFRQAKNGLFIRMALLKLLLVGW
notes: aspartate transcarbamoylase (ATC; pyrB; At3g20330), Arabidopsis thaliana, aa 82-390 of the 390 aa precursor, with F161A in the CP-loop; Same construct as m1 with the point mutation F161A, made by site-directed mutagenesis; also called atATC-F161A; source: E. coli BLR(DE3)-pLysS, purified (Ni-sepharose, size-exclusion chromatography); not shown: 2.6 kDa fusion tag (from a modified pET28a plasmid)
[2]
  binding result: binds
